Laboratory results: the DeepSol protein solubility set

Assay: soluble on expression in E. coli; label from the status in PepcDB or PDB records

Row | Sequence | soluble on expression in E. coli
1 | MGSDKIHHHHHHMNSRTSFVSPDDRFSMVYFKMEHEGCWTGITKEHNIAIHTLKIIPLKDRNNIYGLFEIRAQGKKEFRDFLRRINREKTIHRVMAYSPSELRKNVYFIDLYEVYGGMIEGILNDYQSIFEYDVVRRGVEEKYAIIPSDRVLELKNSINGLGKIYQFKARCIKNFYYAFSPFLSYTPSEMQIIAEAVSRGYYSIPRHVGIRDLAEYFGMSKSTVQEYLRKAEQKTMNNLKLLKLMNEMKE | not soluble
2 | MGQAPDRPHLETFLARLRAGAKILELGCGGGQDSEYMLSAGFDVHPTDGTPDIAKAAQARLGIPVRTLLFENIEDAALYDAVWANACLLHVPRLALPGIIGRIHTALKPGGVFYASFKAGEVEGRDTFGRYYNYPSKAWLEETYGQFAWTEVEIEARQGSGYDKLPTDWLHVTATKALEHHHHHH | not soluble
3 | MRKLVIPKYYGRPSIGLALFGCTNRPFYHVCVFPDRALGRRYEGNILEQVGTFDPLPNQKNEKLVALNFGRLKYWIGERNAHISVPVLELLGERRNCLSGLFPIHPKSFIRAKDNRALIADQQLKVAAEAAEAEKVAQEQASTGAAATSHPQ | not soluble
4 | MVMEDNESCASRVIFDALPTSQATMDRRERIKMEVFDEVLRRLRQSDIEDAHLPGFEDDLWNHFNRLPARYALDVNVERAEDVLMHKRLLHSAYDPQNRPAIEVHLVQVQPAGISADLDSTSNDAGHSSPTRKSIHPPPAFGSSPNLEALALAASLSQDEDADNSVHNNSLYSRPLHEITFSTEDKPKLLFQLTALLAELGLNIQEAHAFSTTDGYSLDVFVVDGWPYEETERLRISLEKEAAKIELQRPDFSEIIEQLQEIAKEVGEEGEEKKKSSTGLGGGIFAALRRSTTHH | soluble
5 | MTYLEIEGTNHLSGNVTISGAKNAALPLIVSSILAKNEVKINNVPNVADIKTLISLLENLGAKVNFQNNSALLNTNTLNQTIAKYDIVRKMRASILTLGPLLARFGHCEVSLPGGCAIGQRPIDLHLLALEKMGANIQIKQGYVVASGNLKGNEILFDKITVTGSENIIMAAALAKGKTKLLNVAKEPEVVQLCEVLKDAGLEIKGIGTDELEIYGSDGELLEFKEFSVIPDRIEAGTYLCAGAITNSKITLDKVNATHLSAVLAKLHQMGFETLITEDSITLLPAKEIKPVEIMTSEYPGFPTDMQAQFMALALKANGTSIIDERLFENRFMHVSELLRMGADIKLNGHIATIVGGKELNAADVMATDLRASSALILAALAAKGTSKVHRIYHLDRGYENLEEKFKDLGAKITRLEE | not soluble
6 | SLRHFGKRLRVSSSQPFRRSFNPKGEPMSTQIFVNLPVKNLNQSIEFFTQLGFQFNSQFTDETATCMIVSESIFVMLLTHEKFKMFTPKEICDATKSTEVLVCLSFDSREQVDEMVRLAVTAGGTTYNEPQDHGFMYGHGFADLDGHIWEIIYMEPSAINLGEG | soluble
7 | MGNNQSGGPDARYGGPNDKAGLRRHRMMSETAKIAGQVLPNPDGGPPMIFDDGNEDKSGECPVVFRWSFTQNAQPRVVHIVGSWDNWQTRIPMVKSTNDFSTIIDLQPGQYEYKFQVDGSWVVDDNQGKAQDVHGNENNMINIQDSDFAVFEALDEDFQSSTAGEVLRGESESTKNHDTPNDRELEKLRSFTQEIPSMDMLRKAAGPPVIPPQLMQVLLNKETPESCDPNVLPEPNHVMLNHMYALSIKDSVMVLSSTQRYRKKFVTTLLYKPV | not soluble
8 | MASGKATSLYSHAEIFLPSKQESGIKKKSGEETQQTKGATIESSRINQNRAERTQRFQTQCSKRKPYEIRQGIPERSSSKQDPGNKTASIEHRGRENPSETHES | not soluble
9 | MSEMTPREIVSELDQHIIGQADAKRAVAIALRNRWRRMQLQEPLRHEVTPKNILMIGPTGVGKTEIARRLAKLANAPFIKVEATKFTEVGYVGKEVDSIIRDLTDSAGGAIDAVEQNGIVFIDEIDKICKKGEYSGADVSREGVQRDLLPLVEGSTVSTKHGMVKTDHILFIASGAFQVARPSDLIPELQGRLPIRVELTALSAADFERILTEPHASLTEQYKALMATEGVNIAFTTDAVKKIAEAAFRVNEKTENIGARRLHTVMERLMDKISFSASDMNGQTVNIDAAYVADALGEVVENEDLSRFIL | soluble
